What was measured:
[1] = system: CC(=O)Oc1ccc2c(C)cc(=O)oc2c1; test: purified protein; assay type: biochemical, Bacteroides ovatus; settings: pH 8.0, 37 °C, 100 mM buffer
[2] = system: CC(=O)Oc1ccc([N+](=O)[O-])cc1; test: purified protein; assay type: biochemical, Bacteroides ovatus; settings: pH 8.0, 37 °C, 100 mM buffer

Row | Substance | Km [1] | kcat [1] | kcat/Km [1] | Km [2] | kcat [2] | kcat/Km [2]
1 | BoCE1 (Bacteroides ovatus) | 40 ± 10 µM | 0.28 ± 0.01 s⁻¹ | 7100 ± 1600 M⁻¹ s⁻¹ | 1400 ± 100 µM | 0.7 ± 0.02 s⁻¹ | 500 ± 40 M⁻¹ s⁻¹
2 | BoCE6 (Bacteroides ovatus) | 27 ± 6 µM | 1.2 ± 0.1 s⁻¹ | 42800 ± 10000 M⁻¹ s⁻¹ | 1800 ± 200 µM | 36 ± 2.2 s⁻¹ | 20100 ± 2700 M⁻¹ s⁻¹
